Drawing on patent publication US7033832, this text covers mean channel fluorescence (mcf) for one substance.

This test addresses chicken N-cadherin (expressed from pMiwcN vector on LN2 mouse L cell transfectants) (chicken) (UniProt P10288). In words: flow cytometry of LN2 cells stained with NCD2 and FITC secondary antibody.
Sequence of UniProt P10288 (P10288 165-912): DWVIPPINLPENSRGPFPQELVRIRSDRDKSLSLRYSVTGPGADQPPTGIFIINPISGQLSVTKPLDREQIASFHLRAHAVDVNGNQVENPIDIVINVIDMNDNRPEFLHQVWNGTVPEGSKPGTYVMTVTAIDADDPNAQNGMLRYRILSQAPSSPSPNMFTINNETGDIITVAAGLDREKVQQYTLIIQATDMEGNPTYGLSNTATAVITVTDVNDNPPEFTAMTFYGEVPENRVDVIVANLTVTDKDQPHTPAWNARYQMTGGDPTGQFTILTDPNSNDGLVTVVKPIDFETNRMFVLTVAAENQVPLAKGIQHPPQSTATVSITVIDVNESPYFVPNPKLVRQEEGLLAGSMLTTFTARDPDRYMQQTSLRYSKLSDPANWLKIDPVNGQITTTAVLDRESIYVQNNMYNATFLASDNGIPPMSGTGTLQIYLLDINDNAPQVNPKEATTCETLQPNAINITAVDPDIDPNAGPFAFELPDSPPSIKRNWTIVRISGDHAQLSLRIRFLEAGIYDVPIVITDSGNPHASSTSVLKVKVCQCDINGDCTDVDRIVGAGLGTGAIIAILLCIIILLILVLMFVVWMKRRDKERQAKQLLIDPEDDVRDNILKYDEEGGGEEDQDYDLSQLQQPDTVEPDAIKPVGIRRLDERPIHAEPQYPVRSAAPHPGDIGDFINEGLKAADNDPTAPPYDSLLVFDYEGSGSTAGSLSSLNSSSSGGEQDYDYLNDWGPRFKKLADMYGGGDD

Turning to “anti-chicken-N-Cadherin antibody (NCD2, Zymed, San Francisco, Calif.)”, the mean channel fluorescence (mcf) was found to be 26.5 mcf.
